We go through 20 sequences from the DeepSol protein solubility set.

This data set is described as follows: soluble on expression in E. coli; label from the status in PepcDB or PDB records.
Consider “MKITKISLFQKVLPYCSGSLAIGDLSENRTKPFDTFTSSVVVINTDQGVSGVGESCPWVSDNLNEKEVYDCLASRLLGEDPHNLKGIVKNMDAVIQGHTFAKSAIDMACWDIKAKDNGVPLFELLGGMLTDGAPLYRCVMEQEHDKIKAEVEQYRASGYKYFKLRVGIEPDKDIELIKFAANLAEPGEIVYADANCRWTLSEALEVVKAIEGLDVMIEQPCLSYEDCIKVRENTGLLIKLDELVTDLTMAKKIVRDHTADVVCIKMSRVGGLSKALEIRDFFVKKGIKVVTECMMGGEIVSAAVSHFSASTPSEFLFNTGDLHAYVTASTGNISPPTLNGRIYCNDSPGLGVEPDLTSLGTPIAIYQN”, for which the “soluble on expression in E. coli” value was “soluble”.

“MGSDKIHHHHHHLPKLREDFKMQNKSVFILGASGETGKVLLKEILGQNLFSKVTLIGRRKLTFEEEAYKNVNQEVVDFEKLDVYASAFQGHDVGFCCLGTTRSKAGAEGFVRVDRDYVLKSAELAKAGGCKHFNLLSSRGADKSSSFLYLQVKGEVEAKVEELKFDRLSVFRPGVLLCDRQESRPGEWLARKFFGSLPDSWASGYAVPVVTVVRAMLNNLVSPSSGQMELLENKAILHLGKDRDVPKL”: the “soluble on expression in E. coli” value is reported as “soluble”.

As for “MGSDKIHHHHHHMRPVEHAVIPCAGVGSRLNRGVPKSLTEIDGRTLLGRTLLALEHIPHVFLVVGFRKELVISEALRHRRNLIFVPNEYFDQTNTLYSVKLASRLIRDDFLMVDGDVVFDPSSFASLLGQLQTCDGPAIAYSRRTTEDGVKVRLDMSRGETTCTGFFRGEGAHEWTGIGRLNNRVISGNSLFVYESIERHMPAPAYLVDSMDIDTPADLEIARATYGRHDH”, the “soluble on expression in E. coli” value is listed as “not soluble”.

Consider “MAHHHHHHMGTLEAQTQGPGSMSVRVAINGFGRIGRNILRAIIESGRQDIEVVALNDLGSVETNAHLLRYDSVHGCFPGTVQVVGDAIDIGSSLIKVFAERDPAQLPWKALDIDIALECTGIFTARDKASAHLDAGAKRVLVSAPSEGADLTVVYGVNHQFLSKEHHVISNASCTTNCLAPVAQVLHNTVGIEKGFMTTIHSYTGDQPVLDTMHRDLYRARAAALSMIPTSTGAAKAVGLVLPELKGLLDGVSIRVPTPNVSVVDLTFTAKRSTTIEEINTAIRTAAQGSLKGILDYTDEKLVSCDFNHNPHSAIFHNDQTKVIDGQLCRVLVWYDNEWGFSNRMCDTAVAFAKTI”, for which the “soluble on expression in E. coli” value is reported as “soluble”.

For the sequence “MSLKNILIIGANGFTGRRILNDLSVNPIYHVTGCSLRDDICPGKDYRFVRTDIRDENEVRKLFKECRPDIVINTSALSVPDYCETHHAEAEATNVTAVETIAHVCEQYGSRFIHLSTDFVFDGKSTRLYKEEDEAIPVNYYGVTKLKAEKIIASICSNYAIVRVVVVYGKALPGQHGNILQLVANRLRNGETIRVVSDQWRTPTFVGDISVGVEKLMFHTANGIYHICGSECLTIAEIAYRVADFLKLDRSLIEPVTTEEMKEVTPRPRFSGLSIEKAKAEIGYTPRTLEEGMEASEGHHHHHH”, the “soluble on expression in E. coli” value is given as “soluble”.

In the case of “SRVQILKDFVKQHFPATPLLDYALEVEKITTSKKPNLILNVDGFIGVAFVDMLRNCGSFTREEADEYVDIGALNGIFVLGRSMGFIGHYLDQKRLKQGLYRHPWDDISYVLPEHMSM”, the “soluble on expression in E. coli” value is listed as “soluble”.

For the sequence “MGSDKIHHHHHHMQAKTTLEQWEILQAVIDLGGYTQAANVLHRSQSSVSYQLSLLQERLGIELLTIHGRKAELTPEGENLLAQARSVIRSFHALEARAHSLKMGEQASINLVVDSTFPKDRLFHLLSTFQKQHPATRIHLTEVLRNETSAQLKARDADIYIITQREIDGCAGRWLMNVDFVAVAHSHHPLFSLPTPLSHEALSRYPCVEIVMRTPPHSQPASAESWTFTTFEAATQAVLHQVGYGWLPEARISEHITRGELHILPLQQGERRTTPLYLLAEEKGQPLGKEIIMLIELLFGRL”, the “soluble on expression in E. coli” value was “not soluble”.

In the case of “MTIYTLSHGSLKLDVSDQGGVIEGFWRDTTPLLRPGKKSGVATDASCFPLVPFANRVSGNRFVWQGREYQLQPNVEWDAHYLHGDGWLGEWQCVSHSDDSLCLVYEHRSGVYHYRVSQAFHLTADTLTVTLSVTNQGAETLPFGTGWHPYFPLSPQTRIQAQASGYWLEREQWLAGEFCEQLPQELDFNQPAPLPRQWVNNGFAGWNGQARIEQPQEGYAIIMETTPPAPCYFIFVSDPAFDKGYAFDFFCLEPMSHAPDDHHRPEGGDLIALAPGESTTSEMSLRVEWLLEHHHHHH”, the “soluble on expression in E. coli” value is reported as “soluble”.

Consider “MPVLNLNDPQAVERYEEFMRQSPYGQVTQDLGWAKVKNNWEPVDVYLEDDQGAIIAAMSMLLGDTPTDKKFAYASKGPVMDVTDVDLLDRLVDEAVKALDGRAYVLRFDPEVAYSDEFNTTLQDHGYVTRNRNVADAGMHATIQPRLNMVLDLTKFPDAKTTLDLYPSKTKSKIKRPFRDGVEVHSGNSATELDEFFKTYTTMAERHGITHRPIEYFQRMQAAFDADTMRIFVAEREGKLLSTGIALKYGRKIWYMYAGSMDGNTYYAPYAVQSEMIQWALDTNTDLYDLGGIESESTDDSLYVFKHVFVKDAPREYIGEIDKVLDPEVYAELVKD”, for which the “soluble on expression in E. coli” value is “soluble”.

With “MSLVTRSVLKFGGSSVSDFTKIKRIAEMLKERVNQDEQLIVVVSAMGNTTDQLMTNVSTLTKAPKQQELALLLTTGEQQTVSYLSMVLNDIGVNAKAMTGYQAGIKTIGHHLKSKIAQINPQTFEQAFQENDILVVAGFQGINEHQELTTLGRGGSDTTAVALAVSNQIPCEIYTDVDGVYATDPRLLPKAKRLDIVSYEEMMEMSALGAGVLETRSVELAKNYNIPLYLGKTLSNVKGTWIMSNEEILEKKAVTGVALDKHMMHVTISYPLPDNQLLTQLFTELEEGAVNVDMISQIVNLDGLQLSFTIKDSDFHQISMILETLKNQYEALAYKINEHYVKISLIGSGMRDMSGVASKAFLTLIENNIPFYQTTTSEISISYVIDDFNGQQAVEKLYDAFNIEGHHHHHH”, the “soluble on expression in E. coli” value is recorded as “soluble”.

With “MGSDKIHHHHHHMTHRRSKSVKIYLVGGAVRDSLLNLPIKDKDYMVVGATPEQMLQLGYRQVGKDFPVFLHPITQQEYALARTERKVGLGYGGFSCYASPDVTLEQDLLRRDLTINAIAQDEEGNLHDPFNGIGDLNARLLRHVSDAFIEDPLRVLRVARFAARFHHLGFQIADSTLQLMQQIAQSGELNALTPERVWQEVDKTLSGSNPEVFFEVLRQCGALKVLFPELDALFGIPQPEKWHPEIDTGLHTLMVLAQAAILTQDKAVRFAALVHDLGKAITPIEHLPKHHGHGQKGLPIIKALCERLRIPNEFRDLALIVSDQHQNVHQAFKLRPETIIKIFDKADFWRKPERLKQLVQACIADMRGRTGFEHQDYPQGEYFSQCFAVASNVNIKAIIQAGFKGEEIKQILHMHRIDAVGQLKRDKQNAVD”, the “soluble on expression in E. coli” value is “not soluble”.

As for “MGSDKIHHHHHHMAKAKTQFICSNCGYTSARYLGRCPNCGQWNTLIEEKIVPEAVVNRKARISFDGRVAKPKKISEISGNELPRTRTGLRELNRVLGGGIVPGSLILIGGDPGIGKSTLMLQVSGQLAENGGSVLYVSGEESDNQIKLRADRLGVGSDSFIVYPETDMEQIKSIVQQIEPDYLVIDSVQTMQEPDLQSPIGSVAQIREVTANLMQIAKTNAITVFIVGHVTKDGSIAGPKILEHMVDTVLYFEGDANYKYRILRTVKNRFGSTNELGIFEMRDHGLREVANPSEIFLEERLAGATGSAITASMEGSRPILVEVQALVAPTVFGNAQRVTTGVDRNRVSQILAVLEKHANLLLQNQDAHVRITGGVKIDEPAADLAIALAVASSYHEKATNASDVFLGEVGLGGEVRSISLIEDRLKEIAKLGFKRAIVSKNNLAGIDLPKGLQVIGVSTLEEALKLGLDLNRASKQKGFADL”, the “soluble on expression in E. coli” value is “not soluble”.

Regarding “MQTEGAQEMVLQDAVAGIYKKLVVDASGTQLLGAILVGDNSDYDALLHCYLNKTVLPDHAANLLFDTGMLDGEMPDSAIICSCHNVTKGDLVAEIQAGTTNLTDLKANTKAGTGCGGCSNMVKSVLDTQLAAMGVEVNNHLCEHFELSRQEMFHICQVEQIKDFDTLIALHGKGHGCDICKPTAASVFASLWNEHIMEPQHQSLQDSNDAFMANLQKDGSYSIVPRVPGGEITPDKLIVLGEVAQQYDLYTKITGGQRVDLFGAQLEQLPEIWQTLIDAGFETGHAYGKSVRTVKSCVGSTWCRYGVDDSVGLAIELENRYKGLRAPHKLKFAVSGCTRECAEAQSKDIGVIATENGWNLYVCGNGGMRPRHADLFASDLSKSELITMIDRVLMFYVSTADRLQRTSVWMENMEGGLDYLKQVILDDSLNLCDSLDEQMARVVDTYQCEWKSTLDNPQKLQRFRPFLNSTSGSKVLPYQRVRGQRIPVKQEV”, the “soluble on expression in E. coli” value is given as “not soluble”.

For “MREAMYWKPLGDGRVRCELCPLRCIIDEGKRGSCKIRINKGGKLYTLNYGKVSSIALDPIEKKPLFHFWPGSCALSIGTVGCNMHCKHCQNWEISQADESFPYLQDATPEAIVSLAKHYECESIAYTYNEPTIWYEFVLDTAKLARKEGLNNILVTNGYINEEPFRELAPYIDAMNIDIKAFDDKFYMKIASVPSGEPSRRIAEIAKKEFKIHVELTYLIIPTLNDKEEEIREFARWVVENLGDDTPVHFSRFFPHYKLLNLPPTPIETLEKAYKIAKEEGLKFVYLGNVPGHPGENTYCPSCGKLLIERWGFDIIRYDIVDGKCKYCGEKIPIVGKYQKKKYRGMWW”, the “soluble on expression in E. coli” value was “soluble”.

Take “MSLITDGIMHKVREVYQLLRKEPGIIVGVSNRHVHLSREDLETLFGEGYELTPVKELRQPGQYAAKETVTIVGPKGAIENVRVLGPVRKETQVEISRTDAFRLGVRPPVRDSGDLEGTPGIVIIGPNGILVKEKGVIIAKRHIHMHPKDAEYYGVKDKDIVKVIVESGDRRLIFDDVLIRVREDFALEFHVDTDEANAAMLNTGDLVYIVEFEGGSHHHHHH”: the “soluble on expression in E. coli” value is “soluble”.

Regarding “MKEHVKDKKTAIMGAALKLFTERGFHGTSTAQISKNAGVATGTLFNYFPTKEDLINSLYFEVKGNLGHSMGVGLEAETTFQDKLKRIWSNLVNWGVNNQEEFLFVGQFCSSPYITKFTRDEVMKEYVFLHNFVDEGIKTGEVRDFPAELVIAMFYQGSREVVNLILDSDSSLDKNKIIADGFQILWRGLAKV”, the “soluble on expression in E. coli” value is reported as “not soluble”.

“SNAMKAIIKEDVQASLERYADRPVYIHLETTTGSYSAHLNEKNMTVVAYIRNAKVTYHQAKIKGNGPYRVGLKTEEGWIYAEGLTEYTVDEENRLLMAGHLPGGKLAISLQISEKPFTV”: the “soluble on expression in E. coli” value is recorded as “soluble”.

In the case of “MTEQVLFSVSENGVATITLNRPKALNSLSYDMLQPIGQKLKEWEHDERIALIVLKGAGTKGFCAGGDIKTLYEARSNEVALQHAERFFEEEYEIDTYIYQYTKPIIACLDGIVMGGGVGLTNGAKYRIVTERTKWAMPEMNIGFFPDVGAAYFLNKAPGYTGRFVALTASILKASDVLFINAADYFMTSDSLPEFLTELESVNWHKEDDVHTNLKEVIRTFATAPNLESELAPSLEVINSHFAFDTIEEIIHSLEKDESSFALKTKEILLSKSPISLKVTLKQFIDGQDKSVEECFATDLILAKNFMRHEDFFEGVRSVVVDKDQNPNYKYKQLSDVSEEDVNRFFNLLNA”, the “soluble on expression in E. coli” value was “not soluble”.

Take “SMKYKLNVLLAEIALIGTGNHYHEEANCIAEWLHLKGEEEAVQLIRLSSLMNRGDYASALQQGNKLAYPDLEPWLALCEYRLGLGSALESRLNRLARSQDPRIQTFVNGMREQLKT”: the “soluble on expression in E. coli” value is listed as “soluble”.

On to “PVSAMAKKQKNDVADWLMHKQRVQYGGRVYERSGGIKPFLKSIRDGYIGYYLPDQDHGPEHSVFVDFFATRKATLPGLGKIAKLSRSKVLPLFASMNTEDGTFDIEILPAFDLDKGEEQDARTCNEAIEYFVGDKPEQYMWVLQLLHSQEDGNNYYNLFKPRYNTDWQVEK”, for which the “soluble on expression in E. coli” value was “not soluble”.
